The experiment addresses c-Met, endogenous in human cell lines (NCI-H441, EBC-1, MKN45, HCC827 ER15, HEK293) (human, UniProt P08581 25-1390). The experiment can be described thus: cell-based or functional assay.

Sequence of c-Met, endogenous in human cell lines (NCI-H441, EBC-1, MKN45, HCC827 ER15, HEK293) (P08581 25-1390): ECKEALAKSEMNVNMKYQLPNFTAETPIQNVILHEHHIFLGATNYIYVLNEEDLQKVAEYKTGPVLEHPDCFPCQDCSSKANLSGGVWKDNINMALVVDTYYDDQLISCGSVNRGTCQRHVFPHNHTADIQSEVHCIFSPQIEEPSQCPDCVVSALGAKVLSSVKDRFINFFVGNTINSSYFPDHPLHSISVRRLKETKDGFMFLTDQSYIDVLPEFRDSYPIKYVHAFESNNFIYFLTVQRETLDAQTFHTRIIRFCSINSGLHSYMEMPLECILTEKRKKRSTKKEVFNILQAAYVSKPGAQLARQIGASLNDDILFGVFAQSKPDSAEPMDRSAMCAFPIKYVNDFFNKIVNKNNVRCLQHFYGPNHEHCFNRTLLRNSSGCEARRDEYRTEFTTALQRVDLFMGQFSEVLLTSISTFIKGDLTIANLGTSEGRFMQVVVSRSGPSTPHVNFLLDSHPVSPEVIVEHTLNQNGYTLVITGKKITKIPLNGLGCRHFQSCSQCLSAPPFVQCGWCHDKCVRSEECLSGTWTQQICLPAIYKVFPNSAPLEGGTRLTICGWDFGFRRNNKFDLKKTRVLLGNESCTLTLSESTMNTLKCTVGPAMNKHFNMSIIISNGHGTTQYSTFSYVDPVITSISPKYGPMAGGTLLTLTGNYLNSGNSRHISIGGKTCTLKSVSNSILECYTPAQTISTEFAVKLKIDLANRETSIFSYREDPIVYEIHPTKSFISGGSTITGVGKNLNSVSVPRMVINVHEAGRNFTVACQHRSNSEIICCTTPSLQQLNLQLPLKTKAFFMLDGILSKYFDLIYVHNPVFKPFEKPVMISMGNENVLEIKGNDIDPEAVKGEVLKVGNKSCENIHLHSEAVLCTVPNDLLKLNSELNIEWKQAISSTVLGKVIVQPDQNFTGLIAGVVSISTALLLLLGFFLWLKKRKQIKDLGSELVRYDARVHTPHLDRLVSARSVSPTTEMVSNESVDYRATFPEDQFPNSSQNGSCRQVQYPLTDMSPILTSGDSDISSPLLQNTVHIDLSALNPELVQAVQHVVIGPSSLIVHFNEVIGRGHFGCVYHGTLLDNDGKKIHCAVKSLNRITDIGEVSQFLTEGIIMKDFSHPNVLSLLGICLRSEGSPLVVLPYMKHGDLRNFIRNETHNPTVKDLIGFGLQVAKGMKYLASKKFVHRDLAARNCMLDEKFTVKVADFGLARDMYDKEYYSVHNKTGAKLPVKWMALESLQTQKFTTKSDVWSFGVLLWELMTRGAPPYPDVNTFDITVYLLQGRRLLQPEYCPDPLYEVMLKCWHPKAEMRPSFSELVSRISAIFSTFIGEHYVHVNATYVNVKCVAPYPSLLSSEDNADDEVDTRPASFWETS

B1: anti-c-Met antibody L3-1Y (huAbF46-H4-A1 (U6-HC7)) (antibody, V domains shown)
VH: EVQLVESGGGLVQPGGSLRLSCAASGFTFTDYYMSWVRQAPGKGLEWLGFIRNKANGYTTEYSASVKGRFTISRDNSKNTLYLQMNSLRAEDTAVYYCARDNWFAYWGQGTLVTVSS
VL: DIQMTQSPSSLSASVGDRVTITCKSSQSLLASGNQNNYLAWYQQKPGKAPKMLIIWASTRVSGVPSRFSGSGSGTDFTLTISSLQPEDFATYYCQQSYSRPYTFGQGTKVEIKR
On to B1, for which the “total c-Met level by ELISA, Cbl siRNA-transformed EBC-1 cells, 5 ug/ml, 24 h, relative to control IgG” value was around 30%.

(Values after patent US20140105902A1 (SAMSUNG ELECTRONICS, published 2014).)
